Data on 1 substance can be found in publication PMC2841749.

The target in this assay is native CTF cleaved from full-length rCav2.1 proteins. Description: SDS-PAGE under mildly denaturing conditions with immunoblot.

The substance “native CTF cleaved from full-length rCav2.1 proteins” yielded a stoichiometry N of 2.
